In paper PMC8795569:

Molecular target: HA-APP (full-length, APP695 spliced isoform) (UniProt P05067)
Assay: ELISA

- Kd: 41.3 nM
Substance: MDGA1 MAM-Fc (recombinant MDGA1 MAM domain fused to Fc) (from UniProt Q8NFP4 751-918) (Fc fusion)
